No end group written: not given here.
What was measured:
[1] = biological target: T1, E. coli β-clamp (bacterial DNA sliding clamp), His6-tagged (E. coli, UniProt P0A988 1-366); experiment: NMR titration
[2] = biological target: T1, E. coli β-clamp (bacterial DNA sliding …); experiment: ITC

T1 sequence (P0A988 whole entry): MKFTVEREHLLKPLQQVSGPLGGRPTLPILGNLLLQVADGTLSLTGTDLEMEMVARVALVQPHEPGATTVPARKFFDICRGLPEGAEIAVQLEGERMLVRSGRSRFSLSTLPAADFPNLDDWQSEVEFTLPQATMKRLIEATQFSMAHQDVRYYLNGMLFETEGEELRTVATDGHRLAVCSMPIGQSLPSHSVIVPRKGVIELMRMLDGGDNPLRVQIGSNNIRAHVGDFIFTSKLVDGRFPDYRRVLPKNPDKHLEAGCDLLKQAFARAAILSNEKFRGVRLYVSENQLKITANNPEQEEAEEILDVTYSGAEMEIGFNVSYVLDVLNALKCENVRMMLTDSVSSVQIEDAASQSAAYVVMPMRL

Binder | binding result [1] | binding result [2]
GWATQVDGTQMSLLSV (not fully specified (C-terminus); printed as GWATQVDGTQMSLLSV-NH2) | binds | –
GWGEAPVCAQPLLIPL (not fully specified (C-terminus); printed as GWGEAPVCAQPLLIPL-NH2) | binds | –
DWRGLIGSEQVELEFD | – | binds
GWLDPQMERQLVLGL [pol IV* peptide, 15-mer of the polymerase IV C-terminus with an N-terminal Trp (GWLDPQMERQLVLGL)] | binds | –

— doi:10.1101/2024.06.26.600769 (bioRxiv, 2024)
